From PMC7486785 (Proceedings of the National Academy of Sciences of the …, 2020) come the findings set out here.

The chains are these.
B1: Hy10 Fab (Fab, V domains shown)
VH: DVQLQESGPSLVKPSQTLSLTCSVTGDSITSDYWSWIRKFPGNRLEYMGYVSYSGSTYYNPSLKSRISITRDTSKNQYYLDLNSVTTEDTATYYCANWDGDYWGQGTLVTVSA
VL: DIVLTQSPATLSVTPGNSVSLSCRASQSIGNNLHWYQQKSHESPRLLIKYASQSISGIPSRFSGSGSGTDFTLSINSVETEDFGMYFCQQSNSWPYTFGGGTKLEIK
notes: Hy10 Fab heavy chain; Hy10 Fab light chain; Biotinylated only for BLI, not for the crystals; also called HyHEL10; WT founder antibody; source: Expi293, transient, purified (Talon, gel filtration)
B2: HyHEL10 (Hy10) Fab, WT founder (Fab, V domains shown)
VH: B1 VH
VL: B1 VL
notes: heavy chain of Hy10 Fab; light chain of Hy10 Fab; also called Hy10WT; source: Expi293, transient (pCEP4), purified (Talon resin, gel filtration)
B3: Hy10 Fab Y58F (Fab, V domains shown)
VH: B1 VH with Y58F
VL: B1 VL
notes: as the heavy chain of Dm5 with the stated changes; as the light chain of Dm5; source: Expi293, transient (pCEP4), purified (Talon resin, gel filtration)
B4: Hy10 Fab I29F/S52T/Y53F (Fab, V domains shown)
VH: B1 VH with I29F, S52T, Y53F
VL: B1 VL
notes: as for B3
B5: Hy10 Fab S52T/Y58F (Fab, V domains shown)
VH: B1 VH with S52T, Y58F
VL: B1 VL
notes: as for B3
B6: Hy10 Fab S52T (Fab, V domains shown)
VH: B1 VH with S52T
VL: B1 VL
notes: as for B3
B7: Hy10 Fab I29F/S52T/Y58F (Fab, V domains shown)
VH: B1 VH with I29F, S52T, Y58F
VL: B1 VL
notes: as for B3
B8: Hy10 Fab L4F/Y33H (Fab, V domains shown)
VH: B1 VH with L4F, Y33H
VL: B1 VL
notes: as for B3
B9: Hy10 Fab Y53F/Y58F (Fab, V domains shown)
VH: B1 VH with Y53F, Y58F
VL: B1 VL
notes: as for B3
B10: Hy10 Fab L4F (Fab, V domains shown)
VH: B1 VH with L4F
VL: B1 VL
notes: as for B3
B11: Hy10 Fab S52T/Y53F/Y58F (Fab, V domains shown)
VH: B1 VH with S52T, Y53F, Y58F
VL: B1 VL
notes: as for B3
B12: Hy10 Fab S31N (Fab, V domains shown)
VH: B1 VH with S31N
VL: B1 VL
notes: as for B3
B13: Hy10 Fab Y53F (Fab, V domains shown)
VH: B1 VH with Y53F
VL: B1 VL
notes: as for B3
B14: Hy10 Fab S56R (Fab, V domains shown)
VH: B1 VH with S56R
VL: B1 VL
notes: as the heavy chain of Dm5 with the stated changes; as the light chain of Dm5; also called Hy10-S56R; source: Expi293, transient (pCEP4), purified (Talon resin, gel filtration)
B15: Hy10 Fab Y33H (Fab, V domains shown)
VH: B1 VH with Y33H
VL: B1 VL
notes: as the heavy chain of Dm5 with the stated changes; as the light chain of Dm5; also called Hy10-Y33H; source: Expi293, transient (pCEP4), purified (Talon resin, gel filtration)
B16: Hy10 Fab I29F/S52T/Y53F/Y58F (Fab, V domains shown)
VH: B1 VH with I29F, S52T, Y53F, Y58F
VL: B1 VL
notes: as for B3
B17: Hy10 Fab S52T/Y53F (Fab, V domains shown)
VH: B1 VH with S52T, Y53F
VL: B1 VL
notes: as for B3
B18: Hy10 Fab I29F (Fab, V domains shown)
VH: B1 VH with I29F
VL: B1 VL
notes: as for B3
B19: Hy10 Fab Y53F/S56R (Fab, V domains shown)
VH: B1 VH with Y53F, S56R
VL: B1 VL
notes: as for B3
B20: Hy10 Fab I29F/S52T (Fab, V domains shown)
VH: B1 VH with I29F, S52T
VL: B1 VL
notes: as for B3

As usually defined, the Kd is the concentration at which binding is half-saturated.

Residue numbers refer to the chain shown, from its start. Names may count otherwise.

For one test, the target named is Duck egg lysozyme (DEL). Put plainly: bio-layer interferometry. Particulars: parent: est. 2.5e7 M-1; read off a plot. A general note: In BLI a coated tip is dipped into the sample, and binding shifts an interference pattern.
As to Hy10 Fab S52N, the Ka was less than 100000 M⁻¹.

The target in a further test is VH substitutions L4F, S31N, Y33H, and S56N. Briefly: BLI; BLItz; biotinylated Fab loaded on streptavidin biosensors, lysozyme proteins in solution at a range of molar concentrations; PBS (sensors rehydrated in PBS with 0.1% BSA); global fit, 1:1 Fab-lysozyme interaction; affinities printed as 1/KD.
Conditions: not given
The molecule “HEL^3X self-lysozyme (from UniProt P00698 19-147) (natural protein)” returned a fold decrease in affinity against Hy10 of 3 to 39 fold.

Another test has as its target T1, Duck egg lysozyme (DEL) (Anas platyrhynchos, DEL-II double mutant, strain).
T1 construct: duck egg lysozyme, DEL-II isoform, D65N + N103D double mutant; source: P. pastoris, secreted, purified (ion exchange)
T1 chain: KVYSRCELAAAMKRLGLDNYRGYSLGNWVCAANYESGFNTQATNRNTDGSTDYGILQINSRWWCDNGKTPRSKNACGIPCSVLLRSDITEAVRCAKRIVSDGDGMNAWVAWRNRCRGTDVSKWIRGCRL
The test is described as above. Particulars: both partners purified.
In turn, B1 showed a Ka of 2.5e+07 M⁻¹.

For a further test, the target named is T2, Duck egg lysozyme (DEL), D65N + N103D double mutant of the DEL-II isoform (Anas platyrhynchos, DEL-II double mutant, strain).
T2 construct: duck egg lysozyme, DEL-II isoform, D65N + N103D double mutant; differs from HEL3X at 25 amino acids; source: Pichia pastoris, secreted, purified from culture supernatant (ion exchange)
T2 chain: T1 chain
Briefly: BLI; BLItz (ForteBio); biotinylated Hy10 Fab variant immobilised on streptavidin biosensors (rehydrated in PBS with 0.1% wt/vol BSA); soluble monomeric lysozyme antigen as analyte at a range of concentrations; global fit, 1:1 Fab-lysozyme interaction. Particulars: both partners purified.
Regarding B2, the Ka came to 2.49e+07 M⁻¹ and the dissociation constant Kd worked out at 40.1 nM. The matching figures for B3: 9.35e+07 M⁻¹ and 10.7 nM. The corresponding values for B4 are 6.1e+09 M⁻¹ and 0.164 nM. Turning to B5, the Ka was found to be 3.8e+08 M⁻¹ and the Kd is 2.62 nM. Take B6: the Ka was 2.98e+07 M⁻¹ and the Kd amounted to 33.5 nM. Turning to B7, the Ka worked out at 5.92e+08 M⁻¹ and the dissociation constant Kd stood at 1.69 nM.

As for B8, the Ka was found to be 5.8e+06 M⁻¹ and the Kd came out at 172 nM. The matching figures for B9: 1.13e+08 M⁻¹ and 8.85 nM.

With B10, the Ka was determined as 3.25e+06 M⁻¹ and the equilibrium dissociation constant (Kd) was 308 nM. The corresponding values for B11 are 1.99e+09 M⁻¹ and 0.502 nM.

Take B12: the Ka is 9.6e+06 M⁻¹ and the dissociation constant Kd was found to be 104 nM. The corresponding values for B13 are 1.2e+08 M⁻¹ and 8.35 nM. The matching figures for B14: 4.41e+06 M⁻¹ and 227 nM.

For B15, the Ka was found to be 1.68e+06 M⁻¹ and the Kd was determined as 594 nM. The corresponding values for B16 are 7.51e+09 M⁻¹ and 0.133 nM.

In the case of B17, the Ka is 2.81e+08 M⁻¹ and the Kd was determined as 3.56 nM. As to B18, the Ka was 6.37e+07 M⁻¹ and the Kd came to 15.7 nM. With B19, the Ka stood at 3.73e+07 M⁻¹ and the equilibrium dissociation constant (Kd) turned out to be 26.8 nM. The corresponding values for B20 are 1.73e+08 M⁻¹ and 5.79 nM.
